Measurements from US20140120109A1 (Regeneron, published 2014).
Numbering of substitutions follows the chain as printed. Numbers in names are those of the source.

T1: human DR3, full-length, expressed on HEK293 NFkB-luciferase reporter cells (human, UniProt Q93038 25-417)
T1 sequence: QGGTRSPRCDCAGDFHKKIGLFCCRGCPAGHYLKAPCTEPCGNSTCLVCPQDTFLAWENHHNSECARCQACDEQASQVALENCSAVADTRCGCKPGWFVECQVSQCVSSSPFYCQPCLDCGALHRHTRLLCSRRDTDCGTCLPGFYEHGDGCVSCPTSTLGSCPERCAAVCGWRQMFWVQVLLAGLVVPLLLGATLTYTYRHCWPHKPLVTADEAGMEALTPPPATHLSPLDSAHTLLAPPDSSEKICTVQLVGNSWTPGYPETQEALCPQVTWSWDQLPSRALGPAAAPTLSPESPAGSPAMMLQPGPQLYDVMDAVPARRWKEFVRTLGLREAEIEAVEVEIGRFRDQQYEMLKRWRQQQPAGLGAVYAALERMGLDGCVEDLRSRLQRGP

T2: Fhm, hTL1A(Q167R), soluble, E. coli-expressed, residues 72-251 of SEQ ID NO:246 (human, UniProt O95150 72-251)
T2 construct: with or without N-terminal Met
T2 chain: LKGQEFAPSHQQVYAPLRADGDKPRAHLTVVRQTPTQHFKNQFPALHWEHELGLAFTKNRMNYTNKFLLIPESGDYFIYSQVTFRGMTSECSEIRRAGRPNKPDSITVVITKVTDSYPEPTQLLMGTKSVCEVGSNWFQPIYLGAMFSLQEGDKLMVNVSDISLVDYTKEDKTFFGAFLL

B1: mouse TL1A, soluble, CHO-expressed, residues 76-252 of SEQ ID NO:250 with N-terminal His6-tag (ligand)
chain: HHHHHHITEERSEPSPQQVYSPPRGKPRAHLTIKKQTPAPHLKNQLSALHWEHDLGMAFTKNGMKYINKSLVIPESGDYFIYSQITFRGTTSVCGDISRGRRPNKPDSITMVITKVADSYPEPARLLTGSKSVCEISNNWFQSLYLGATFSLEEGDRLMVNVSDISLVDYTKEDKTFFGAFLL
B2: rat TL1A, soluble, CHO-expressed, residues 76-252 of SEQ ID NO:258 with N-terminal His6-tag (ligand)
chain: HHHHHHVTEERSAPSAQPVYTPSRDKPKAHLTIMRQTPVPHLKNELAALHWENNLGMAFTKNRMNYTNKFLVIPESGDYFIYSQITFRGTTSECGDISRVRRPKKPDSITVVITKVADSYPEPAHLLTGTKSVCEISSNWFQPIYLGAMFSLEEGDRLMVNVSDISLVDYTKEDKTFFGAFLI
B3: human TL1A, soluble, E. coli-expressed, residues 72-251 of SEQ ID NO:244 (ligand)
chain: T2 chain with R96Q
B4: cynomolgus monkey TL1A, soluble, E. coli-expressed, residues 72-251 of SEQ ID NO:248 (ligand)
chain: T2 chain with F39L, I78V, R96Q
B5: mouse TL1A, soluble, E. coli-expressed, residues 76-252 of SEQ ID NO:250 (ligand)
chain: ITEERSEPSPQQVYSPPRGKPRAHLTIKKQTPAPHLKNQLSALHWEHDLGMAFTKNGMKYINKSLVIPESGDYFIYSQITFRGTTSVCGDISRGRRPNKPDSITMVITKVADSYPEPARLLTGSKSVCEISNNWFQSLYLGATFSLEEGDRLMVNVSDISLVDYTKEDKTFFGAFLL
B6: H2M1704N (antibody, V domains shown)
VH: EVQLVESGGGLVQPGGSLRLSCAVSGFTFSSYWMSWVRQAPGKGLEWVANIKEDGSEKNYVDSVKGRFTLSSDNAKNSLYLQMNSLRAEDTAVYYCAREDYDSYYKYGMDVWGQGTAVIVSS
VL: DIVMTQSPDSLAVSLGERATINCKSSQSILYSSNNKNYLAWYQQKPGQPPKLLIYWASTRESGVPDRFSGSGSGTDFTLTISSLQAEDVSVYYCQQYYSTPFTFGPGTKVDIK
notes: chimeric hybridoma antibody: human variable regions, mouse constant regions (mouse Fc)
B7: human TL1A, soluble, CHO-expressed, residues 72-251 of SEQ ID NO:244 with N-terminal His6-tag (ligand)
chain: HHHHHHLKGQEFAPSHQQVYAPLRADGDKPRAHLTVVRQTPTQHFKNQFPALHWEHELGLAFTKNRMNYTNKFLLIPESGDYFIYSQVTFRGMTSECSEIRQAGRPNKPDSITVVITKVTDSYPEPTQLLMGTKSVCEVGSNWFQPIYLGAMFSLQEGDKLMVNVSDISLVDYTKEDKTFFGAFLL
B8: Fhm, hTL1A(Q167R), soluble, CHO-expressed, residues 72-251 of SEQ ID NO:246 (ligand)
chain: B7 chain with Q102R
B9: cynomolgus monkey TL1A, soluble, CHO-expressed, residues 72-251 of SEQ ID NO:248 with N-terminal His6-tag (ligand)
chain: B7 chain with F45L, I84V

Columns and labels:
[1] = target: T1, human DR3, full-length, expressed on …; assay: cell-based or functional assay
[2] = target: B4; assay: SPR 37C, mAb captured
Protocol: (§1) Measurements were conducted on a T100 BIACORE™ instrument. […] Kinetic association (kₐ) and dissociation (kd) rate constants were determined by fitting the data to a 1:1 binding model using BIAevaluation 4.1 curve fitting software (BIAcore Life Sciences). Molar concentrations of TL1A/Fhm used in the data fitting assumed a monomeric state for TL1A in solution. Binding dissociation equilibrium constants (KD) and dissociative half-lives (t_{1/2}) were calculated from the kinetic rate constants as: KD (M)=kd/kₐ; and t_{1/2} (min)=[In2/(60*kd)].

[3] = target: B4; assay: SPR 25C, mAb captured
Protocol: as §1

[4] = target: T2, Fhm, hTL1A(Q167R), soluble, E. …; assay: SPR 25C, mAb captured
Protocol: as §1

[5] = target: B5; assay: SPR 25C, steady state
Protocol: Measurements were conducted on a T100 BIACORE™ instrument. […] Kinetic association (kₐ) and dissociation (kd) rate constants were determined by fitting the data to a 1:1 binding model using BIAevaluation 4.1 curve fitting software (BIAcore Life Sciences). Molar concentrations of TL1A/Fhm used in the data fitting assumed a monomeric state for TL1A in solution. […]

Binder | EC50, NFkB-luciferase reporter [1] | also measured
B1 | 0.08 nM | 
B2 | 0.06 nM | 
B3 | 0.12 nM | 
B4 | 2.02 nM | 
B5 | 0.01 nM | 
B6 |  | Kd [2]: 0.751 nM; t1/2 [2]: 16 min; Kd [3]: 0.285 nM; t1/2 [3]: 57 min; Kd [4]: 0.282 nM; t1/2 [4]: 52 min; Kd [5]: 127 nM
B7 | 0.63 nM | 
B8 | 0.32 nM | 
B9 | 0.86 nM | 
